Reference: patent US20250025541A1

Biological target: IL-4Ra of CTLL-2 cells (UniProt P16382)
Assay: cell-based or functional assay

## muIL-4 immunogenic product (CRM197) (from UniProt P07750 21-140; P00587 26-560)
  ED50 [ng · mL^-1], residual activity, CTLL-2 proliferation: 0.62 µg/mL
  Inactivation factor (ED50 of the product divided by ED50 of the muIL-4 control), CTLL-2 proliferation: 370

## muIL-4 immunogenic product (KLH)
  ED50 [ng · mL^-1], residual activity, CTLL-2 proliferation: 0.0215 µg/mL
  Inactivation factor (ED50 of the product divided by ED50 of the muIL-4 control), CTLL-2 proliferation: 21
